Experimental data from US12319925B2, “Methods and compositions for genomic integration” (Myeloid Therapeutics, Inc., priority 2021, dated 2025).

Tested on: THP-1 cells
Assay: Integration and expression of HER2 binder-T2A-GFP cargo after LINE-1 plasmid electroporation
Assay type: cell-based
Conditions: 3.7 kb cargo, day 6 post transfection, FIG. 18B
From the text: Next, THP-1 cells (a myeloid, monocytic cell line) were electroporated with a plasmid having LINE-1 sequences and a 3.7 kb cargo encoding a chimeric HER-2 binding receptor, and a split GFP (LINE-1 plasmid Her2-Cd3z-T2A-GFPintron) (FIG. 18A). The cargo is a chimeric receptor that comprises a HER2 binding extracellular domain, a CD3z transmembrane domain, and split GFP reporter. […] Moreover, unlike CRISPR dependent technologies such as Prime editing, retrotransposition can result in integration of large genetic cargo, and, these can be delivered as a single nucleic acid construct.

B1: LINE-1 plasmid Her2-Cd3z-T2A-GFPintron: LINE-1 plasmid with cargo encoding chimeric HER-2 binding receptor and split GFP (SEQ ID NO: 41) (nucleic acid)
DNA: CGGCCGCGGGGGGAGGAGCCAAGATGGCCGAATAGGAACAGCTCCGGTCTACAGCTCCCAGCGTGAGCGACGCAGAAGACGGTGATTTCTGCATTTCCATCTGAGGTACCGGGTTCATCTCACTAGGGAGTGCCAGACAGTGGGCGCAGGCCAGTGTGTGTGCGCACCGTGCGCGAGCCGAAGCAGGGCGAGGCATTGCCTCACCTGGGAAGCGCAAGGGGTCAGGGAGTTCCCTTTCCGAGTCAAAGAAAGGGGTGACGGACGCACCTGGAAAATCGGGTCACTCCCACCCGAATATTGCGCTTTTCAGACCGGCTTAAGAAACGGCGCACCACGAGACTATATCCCACACCTGGCTCGGAGGGTCCTACGCCCACGGAATCTCGCTGATTGCTAGCACAGCAGTCTGAGATCAAACTGCAAGGCGGCAACGAGGCTGGGGGAGGGGCGCCCGCCATTGCCCAGGCTTGCTTAGGTAAACAAAGCAGCAGGGAAGCTCGAACTGGGTGGAGCCCACCACAGCTCAAGGAGGCCTGCCTGCCTCTGTAGGCTCCACCTCTGGGGGCAGGGCACAGACAAACAAAAAGACAGCAGTAACCTCTGCAGACTTAAGTGTCCCTGTCTGACAGCTTTGAAGAGAGCAGTGGTTCTCCCAGCACGCAGCTGGAGATCTGAGAACGGGCAGACTGCCTCCTCAAGTGGGTCCCTGACCCCTGACCCCCGAGCAGCCTAACTGGGAGGCACCCCCCAGCAGGGGCACACTGACACCTCACACGGCAGGGTATTCCAACAGACCTGCAGCTGAGGGTCCTGTCTGTTAGAAGGAAAACTAACAACCAGAAAGGACATCTACACCGAAAACCCATCTGTACATCACCATCATCAAAGACCAAAAGTAGATAAAACCACAAAGATGGGGAAAAAACAGAACAGAAAAACTGGAAACTCTAAAACGCAGAGCGCCTCTCCTCCTCCAAAGGAACGCAGTTCCTCACCAGCAACAGAACAAAGCTGGATGGAGAATGATTTTGATGAGCTGAGAGAAGAAGGCTTCAGACGATCAAATTACTCTGAGCTACGGGAGGACATTCAAACCAAAGGCAAAGAAGTTGAAAACTTTGAAAAAAATTTAGAAGAATGTATAACTAGAATAACCAATACAGAGAAGTGCTTAAAGGAGCTGATGGAGCTGAAAACCAAGGCTCGAGAACTACGTGAAGAATGCAGAAGCCTCAGGAGCCGATGCGATCAACTGGAAGAAAGGGTATCAGCAATGGAAGATGAAATGAATGAAATGAAGCGAGAAGGGAAGTTTAGAGAAAAAAGAATAAAAAGAAATGAGCAAAGCCTCCAAGAAATATGGGACTATGTGAAAAGACCAAATCTACGTCTGATTGGTGTACCTGAAAG
With B1 the “genomic integration and expression of cargo” value was “successfully integrated into the genome and showed prolonged expression”.
